Values quoted from earlier work, collected in PMC7823800.
Where two headings read alike, the source gives them in different places.

How the values were obtained:
TNF (Homo sapiens) [1] = molecular target: TNF (Homo sapiens) (UniProt P01375)
TNF (Homo sapiens) [2] = molecular target: TNF (Homo sapiens) (UniProt P01375); remark: listed apart in the source

Sequence of TNF (Homo sapiens) (P01375 77-233): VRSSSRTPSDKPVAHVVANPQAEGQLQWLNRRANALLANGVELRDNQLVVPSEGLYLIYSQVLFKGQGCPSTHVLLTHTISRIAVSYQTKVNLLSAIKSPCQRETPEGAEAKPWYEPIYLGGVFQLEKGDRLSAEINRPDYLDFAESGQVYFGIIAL
Sequence of CrmB (P0DSV7 23-349): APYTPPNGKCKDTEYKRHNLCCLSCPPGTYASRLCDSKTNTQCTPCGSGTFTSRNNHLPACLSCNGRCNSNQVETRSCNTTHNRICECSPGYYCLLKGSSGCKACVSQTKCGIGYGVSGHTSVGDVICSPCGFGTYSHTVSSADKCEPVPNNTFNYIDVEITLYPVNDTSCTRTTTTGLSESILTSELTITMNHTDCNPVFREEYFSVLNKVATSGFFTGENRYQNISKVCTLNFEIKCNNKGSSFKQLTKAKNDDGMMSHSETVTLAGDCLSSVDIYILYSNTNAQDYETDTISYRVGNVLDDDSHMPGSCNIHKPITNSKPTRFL
Sequence of TNFR2 (P20333 23-461): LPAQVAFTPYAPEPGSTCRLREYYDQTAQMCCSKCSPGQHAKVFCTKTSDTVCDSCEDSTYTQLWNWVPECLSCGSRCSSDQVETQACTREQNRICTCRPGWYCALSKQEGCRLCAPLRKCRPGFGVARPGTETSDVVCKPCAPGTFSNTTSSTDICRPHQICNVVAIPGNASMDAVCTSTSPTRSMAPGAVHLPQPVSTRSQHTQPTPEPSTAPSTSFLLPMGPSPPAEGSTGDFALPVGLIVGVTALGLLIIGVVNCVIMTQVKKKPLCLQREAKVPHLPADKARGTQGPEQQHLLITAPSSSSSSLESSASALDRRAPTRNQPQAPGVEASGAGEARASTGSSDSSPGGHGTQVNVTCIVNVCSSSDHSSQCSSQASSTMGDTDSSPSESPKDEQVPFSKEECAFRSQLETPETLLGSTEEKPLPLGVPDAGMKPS

Row | Substance | Kd (TNF (Homo sapiens) [1]) | Kd (TNF (Homo sapiens) [2])
1 | CrmB (from UniProt P0DSV7) | 0.28 nM | 
2 | TNFR2 (from UniProt P20333) |  | 0.3 nM
